Reference: patent publication US20170002074A1

Key:
[1] = biological target: Full-length huCD33 membrane construct with single mutation S115A (human) (UniProt P20138); test: FACS with Dylight 650 labelled isotype control on 293AD cells transiently expressing huCD33 S115A
Human CD33 (human) [2] = biological target: Human CD33 (human) (UniProt P20138); test: FACS on 293-hCD33 cells, isotype control of the competition experiment
[3] = biological target: Full-length huCD33 membrane construct with single mutation S115A (human) (UniProt P20138); test: FACS with WM53-APC (BD-Bioscience) on 293AD cells transiently expressing huCD33 S115A
[4] = biological target: Full-length huCD33 membrane construct with double mutation S102A/S115A (human) (UniProt P20138); test: FACS with WM53-APC (BD-Bioscience) on 293AD cells transiently expressing huCD33 S102A/S115A
Chain of Full-length huCD33 membrane construct with double mutation S102A/S115A (human) (P20138 18-364 S102A/S115A): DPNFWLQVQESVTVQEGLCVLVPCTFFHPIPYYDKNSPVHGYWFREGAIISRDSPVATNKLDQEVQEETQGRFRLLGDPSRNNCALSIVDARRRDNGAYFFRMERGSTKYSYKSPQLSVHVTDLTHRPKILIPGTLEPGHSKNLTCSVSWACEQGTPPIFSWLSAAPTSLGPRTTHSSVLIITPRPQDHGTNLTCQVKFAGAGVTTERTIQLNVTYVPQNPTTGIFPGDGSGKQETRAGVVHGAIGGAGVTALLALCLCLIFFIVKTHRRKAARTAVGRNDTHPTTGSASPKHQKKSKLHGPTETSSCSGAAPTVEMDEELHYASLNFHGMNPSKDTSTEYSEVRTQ

Human CD33 (human) [5] = biological target: Human CD33 (human) (UniProt P20138); test: FACS with WM53-APC (BD-Bioscience) on HEK293AD cells stably expressing rhCD33 (positive control stain)
[6] = biological target: Full-length huCD33 membrane construct with single mutation S115A (human) (UniProt P20138); test: FACS with APC-labelled isotype control on 293AD cells transiently expressing huCD33 S115A
[7] = biological target: huCD33 R69G variant (human) (UniProt P20138); test: FACS, control antibody, on 293AD cells labelled 'SNPG69R', taken as the SNP variant of paragraph 650
Chain of huCD33 R69G variant (human) (P20138 18-364 R69G): as the sequence (P20138 18-364 S102A/S115A) above, with R52G, A85S, A98S counted along it

[8] = biological target: Construct-88: irrelevant Ig-like V linked to a CD33 Ig-like C (R144-Q228 including TM/CD L229) (human); test: FACS on 293 cells transiently transfected with construct 88, control antibody
Chain of Construct-88: irrelevant Ig-like V linked to a CD33 Ig-like C (R144-Q228 including TM/CD L229) (human) (P20138 144-364): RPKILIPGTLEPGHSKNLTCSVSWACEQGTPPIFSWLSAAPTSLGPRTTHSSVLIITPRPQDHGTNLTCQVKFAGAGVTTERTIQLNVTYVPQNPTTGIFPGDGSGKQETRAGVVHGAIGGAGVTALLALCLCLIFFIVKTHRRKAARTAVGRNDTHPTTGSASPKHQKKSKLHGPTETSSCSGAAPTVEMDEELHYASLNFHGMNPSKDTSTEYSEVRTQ

[9] = biological target: Construct-88B: CD33 Ig-like V (M17-V136 including spacer H137-H143) linked to an irrelevant Ig-like C (including TM/CD) (human); test: FACS on 293 cells transiently transfected with construct 88B, control antibody
Chain of Construct-88B: CD33 Ig-like V (M17-V136 including spacer H137-H143) linked to an irrelevant Ig-like C (including TM/CD) (human) (chain, as listed by the source limits assumed, form in doubt): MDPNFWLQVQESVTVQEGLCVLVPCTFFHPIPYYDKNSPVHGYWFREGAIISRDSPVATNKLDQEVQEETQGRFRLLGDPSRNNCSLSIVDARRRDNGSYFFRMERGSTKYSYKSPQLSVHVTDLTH

Chain of Full-length huCD33 membrane construct with single mutation S115A (human) (P20138 18-364 S115A): as the sequence (P20138 18-364 S102A/S115A) above, with A85S counted along it
Chain of Human CD33 (human) (P20138 18-364): as the sequence (P20138 18-364 S102A/S115A) above, with A85S, A98S counted along it

Iso-650 (antibody)
Geom. Mean:FL4-H [1]: 8.67

Isotype (antibody)
Geom. Mean:FL1 (Human CD33 (human) [2]): 3.58

WM53 (antibody)
Geom. Mean:FL4-H [3]: 609
Geom. Mean:FL4-H [4]: 500
Geom. Mean:FL4-H (Human CD33 (human) [5]): 1280

Iso-APC (antibody)
Geom. Mean:FL4-H [6]: 2.52

mIgG1 (antibody)
Geom. Mean:FL1-H [7]: 5.78

gD (antibody)
Geom. Mean:FL1-H [7]: 5.83

hgD-650 (antibody)
Geom. Mean:FL4-H [8]: 13.9
Geom. Mean:FL4-H [9]: 16.7
